# Assay results: patent US20240141025A1 (PROTHENA BIOSCIENCES, published 2024)
# Molecular target: T1, recombinant human TTR F87M/L110M (human, UniProt P02766 21-147)
# Assay: SPR (Biacore), mAb captured on anti-human chip, TTR F87M/L110M as analyte
Kd [nM],koff [s⁻¹],kon [M⁻¹ s⁻¹],Binder
4.32,0.000657,152000,"Hu9D5 H3L1 (antibody, human IgG1, kappa, V domains shown, also called humanized 9D5 VHv3/VLv1) VH: EVQLVESGGGLVQPGGSLRLSCAASGFTFSSYTMSWVRQAPGKGLEWVSEISNSGDTTYYPDTVKGRFTFSRDNAKNSLYLQSNLLRAEDTAVYYCARHYYYGGGYGGWFFDVWGQGTTVTVSS VL: DIVMTQSPLSLPVTPGEPASISCRSSKSLLHSNGNTYLYWFLQKPGQSPQLLIYRVSNLASGVPDRFSGSGSGTDFTLKISRVEAEDVGVYYCMQHLEYPLTFGQGTKLEIKR"
6.84,0.000785,115000,"Hu9D5 H2L5 (antibody, human IgG1, kappa, V domains shown, also called humanized 9D5 VHv2/VLv5) VH: EVQLVESGGGLVQPGGSLRLSCAASGFTFSSYTMSWVRQAPGKGLELVAEISNSGDTTYYPDTVKGRFTFSRDNAKNSLYLQSNLLRAEDTAVYYCARHYYYGGGYGGWFFDVWGQGTTVTVSS VL: DIVMTQSAPSLPVTPGESVSISCRSSKSLLHSNGNTYLYWFLQRPGQSPQLLIYRVSNLASGVPSRFSGSGSGTAFTLRISRVEAEDVGVYYCMQHLEYPLTFGQGTKLEIKR"
2.09,0.000533,254000,"Hu9D5 H4L1 (antibody, human IgG1, kappa, V domains shown, also called humanized 9D5 VHv4/VLv1) VH: EVQLVESGGGLVQPGGSLRLSCAASGFTFSSYTMSWVRQAPGKGLEWVSEISNSGDTTYYPDTVKGRFTISRDNAKNSLYLQSNLLRAEDTAVYYCARHYYYGGGYGGWFFDVWGQGTTVTVSS VL: DIVMTQSPLSLPVTPGEPASISCRSSKSLLHSNGNTYLYWFLQKPGQSPQLLIYRVSNLASGVPDRFSGSGSGTDFTLKISRVEAEDVGVYYCMQHLEYPLTFGQGTKLEIKR"

# Molecular target: T1, recombinant human TTR F87M/L110M
# Assay: as above
# Remark: another data set of the same source
Kd [nM],koff [s⁻¹],kon [M⁻¹ s⁻¹],Binder
1.76,0.000677,386000,"Hu14G8 H3L1 (antibody, human IgG1, kappa, V domains shown, also called humanized 14G8 VHv3/VLv1) VH: EVQLVESGGGLVQPGGSLKLSCAASGFTFSSYTMSWVRQTPEKRLELVAEINNSGDTTYYPDTVKGRFTISRDNAKNTLYLQMNSLRAEDTAVYYCARHYYYGGGYGGWFFDVWGQGTLVTVSS VL: DIVMTQSAPSLPVTPGESVSISCRSNKSLLHSNGNTYLYWFLQKPGQSPQLLIYRVSNLASGVPDRFSGSGSGTAFTLKISRVEAEDVGVYYCMQHLEYPLTFGQGTKLEIKR"
2.1,0.000683,326000,"Hu14G8 H2L2 (antibody, human IgG1, kappa, V domains shown, also called humanized 14G8 VHv2/VLv2) VH: EVQLVESGGGLVQPGGSLKLSCAASGFTFSSYTMSWVRQTPEKRLELVAEINNSGDTTYYPDTVKGRFTISRDNAKNTLYLQMSSLKSEDTAMYYCARHYYYGGGYGGWFFDVWGQGTLVTVSS VL: DIVMTQSPLSLPVTPGEPASISCRSNKSLLHSNGNTYLYWFLQKPGQSPQLLIYRVSNLASGVPDRFSGSGSGTDFTLKISRVEAEDVGVYYCMQHLEYPLTFGQGTKLEIKR"

# Continued, binder first:
Binder,Kd [nM],koff [s⁻¹],kon [M⁻¹ s⁻¹]
"Hu14G8 H2L1 (antibody, human IgG1, kappa, V domains shown, also called humanized 14G8 VHv2/VLv1) VH: EVQLVESGGGLVQPGGSLKLSCAASGFTFSSYTMSWVRQTPEKRLELVAEINNSGDTTYYPDTVKGRFTISRDNAKNTLYLQMSSLKSEDTAMYYCARHYYYGGGYGGWFFDVWGQGTLVTVSS VL: DIVMTQSAPSLPVTPGESVSISCRSNKSLLHSNGNTYLYWFLQKPGQSPQLLIYRVSNLASGVPDRFSGSGSGTAFTLKISRVEAEDVGVYYCMQHLEYPLTFGQGTKLEIKR",2.26,0.000693,307000
"Hu14G8 H2L3 (antibody, human IgG1, kappa, V domains shown, also called humanized 14G8 VHv2/VLv3) VH: EVQLVESGGGLVQPGGSLKLSCAASGFTFSSYTMSWVRQTPEKRLELVAEINNSGDTTYYPDTVKGRFTISRDNAKNTLYLQMSSLKSEDTAMYYCARHYYYGGGYGGWFFDVWGQGTLVTVSS VL: DIVMTQSPLSLPVTPGEPASISCRSSKSLLHSNGNTYLYWFLQKPGQSPQLLIYRVSNLASGVPSRFSGSGSGTDFTLKISRVEAEDVGVYYCMQHLEYPLTFGQGTKLEIKR",1.24,0.000318,252000
